From publication PMC8135044, “Lytic transglycosylase MltG cleaves in nascent peptidoglycan and produces short glycan strands” (The Cell Surface, 2021)

Molecular target: T1, BsPBP2B (Bacillus subtilis, UniProt Q07868 1-713)
T1 construct: Not pulled down by Ni-NTA beads alone; also called class B PBP2B; source: E. coli BL21 (DE3), purified from membranes (Ni-NTA, thrombin, HiTrap SP ion exchange)
T1 sequence (looked up): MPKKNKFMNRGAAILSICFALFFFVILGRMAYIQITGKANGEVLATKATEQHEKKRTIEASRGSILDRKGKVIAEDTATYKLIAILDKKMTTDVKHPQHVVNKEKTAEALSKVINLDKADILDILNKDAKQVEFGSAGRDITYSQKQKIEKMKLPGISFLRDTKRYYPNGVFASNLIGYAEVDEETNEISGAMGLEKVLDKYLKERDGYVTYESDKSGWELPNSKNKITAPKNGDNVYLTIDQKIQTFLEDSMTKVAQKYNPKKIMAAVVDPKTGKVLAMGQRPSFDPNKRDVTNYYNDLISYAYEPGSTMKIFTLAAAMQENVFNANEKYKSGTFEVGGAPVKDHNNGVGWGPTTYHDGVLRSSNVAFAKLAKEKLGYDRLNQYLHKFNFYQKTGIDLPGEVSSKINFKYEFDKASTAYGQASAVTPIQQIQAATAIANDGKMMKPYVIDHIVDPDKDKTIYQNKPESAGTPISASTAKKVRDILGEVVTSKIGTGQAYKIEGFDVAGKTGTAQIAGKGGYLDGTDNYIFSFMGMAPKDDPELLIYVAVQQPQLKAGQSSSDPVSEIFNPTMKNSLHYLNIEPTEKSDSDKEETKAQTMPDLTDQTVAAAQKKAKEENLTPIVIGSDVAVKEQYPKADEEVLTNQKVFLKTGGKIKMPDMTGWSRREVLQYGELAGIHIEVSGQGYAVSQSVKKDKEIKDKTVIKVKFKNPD
Test: SPR; PBP2B covalently bound to ampicillin immobilised on the chip; BsMltG injected as analyte, 0 to 500 nM; 25 C; 10 mM Tris/Maleate, 150 mM NaCl, 0.05% Triton X-100, pH 7.5; response at equilibrium fitted to one site saturation; three independent experiments
Conditions: both partners purified

Kd: 128 ± 28 nM
B1: BsMltG (enzyme, Bacillus subtilis, UniProt O34758 1-360, looked up)
chain: MYINQQKKSFFNKKRIILSSIVVLFLIIGGAFLYGKSLLEPVEKDSKTTVNINIPSGSSVSAIASILKKNDVIKSEKAFQYYVKYKGASGFQAGFYHLNKGMDLDAIIQKLTSGATGYAFQITVTEGAQLTQIAAAIADETKYSKKQVIAKLDDETFINQLKKEFPDTVTNDVFNKNIKHPLEGYLFPATYPFNDPDTSLEDIIKAMIKQTNSYVETYKSEMKKNKVSVHKLLTMASLIEEEATEKADRHKIASVFYNRLKKKMPLQTDPTVLYAAGKHKDRVLYKDLEIDSPYNTYKNTGLTPGPIANAGMSSWEAALHPDKTDYLYFLAKSNGEVVFTKTLKEHNKAKEKYISSKNEK
notes: Named without 'His-' in the SPR and activity assays; also called YrrL; MltG from Bacillus subtilis; source: E. coli BL21 (DE3), purified from membranes (Ni-NTA, thrombin, HiTrap SP ion exchange)
